The source of these data is paper PMC8789800.

Like-named read-outs stand apart in the source and are kept apart here.

For one test, the system named is ppERK2 → RSK2. Briefly: In vitro kinase assay, 10 nM ppERK2 phosphorylating 2 µM RSK2, phosphorimaging. In kind it is biochemical, Human. The conditions noted are these: 50 µM ORF45 peptide; tested on ppERK2 → RSK2 and MKK1 → ERK2 → RSK2. How it is done: (§1) Phosphorimaging results are plotted on the panel at the right based on one experiment (N = 1). b In vitro kinase assay results on RSK substrate phosphorylation. […] The schematic panel on the right highlights the hierarchical phosphorylation events (one-end arrows) and the PPIs (two-end arrows) required for NTK mediated phosphorylation of RSK substrates.
Radioactivity based kinase reactions were carried out in 50 mM HEPES, pH 7.5, 100 mM NaCl, 5 mM MgCl2, 0.05% IGEPAL, 5% glycerol, 2 mM DTT using recombinant expressed and purified proteins in the presence of 250 μM ATP and ∼5 μCi of [γ-^32P]ATP. Reactions were stopped with protein loading sample buffer complemented with 20 mM EDTA, boiled, and then subjected to SDS-PAGE. Gels were dried before phosphorimaging by a Typhoon Trio+ scanner (GE Healthcare).

Test [1] has as its system RSK2 and ERK2-RSK2 complex. The experiment in a line: Size-exclusion chromatography with fluorescently labeled ORF45(16-76). Format: binding. The conditions noted are these: peptide labeled with a fluorescent dye. A general note: SEC sorts molecules by how far they enter the pores of the column.
The next test relates to MBP-NTK_RSK2. In kind it is binding, Human. Conditions: GST-fusion preys, 10–20 µM; Coomassie gel; N = 1; ORF45 = GST-ORF45(16-76).
For the next test, the system named is MKP3. The experiment in a line: ppERK2 dephosphorylation by MKP3, quantitative Western-blot. Format: biochemical, human. Conditions: 1 μM ppERK2, 1 μM MKP3; 1 μM RSK2; 1 or 5 μM ORF45(16-76).
Description: as §1
Sequences of oligonucleotides used for cloning are listed in Supplementary Table 4.

The target in test [2] is double-phosphorylated ERK2 (ppERK2) (human) (UniProt P28482). Briefly: fluorescence polarisation. Background: In fluorescence polarisation assays a small probe gives low polarisation when free and higher when bound to something large.
double-phosphorylated ERK2 (ppERK2) (human), sequence (P28482 whole entry, the tested form may be a part): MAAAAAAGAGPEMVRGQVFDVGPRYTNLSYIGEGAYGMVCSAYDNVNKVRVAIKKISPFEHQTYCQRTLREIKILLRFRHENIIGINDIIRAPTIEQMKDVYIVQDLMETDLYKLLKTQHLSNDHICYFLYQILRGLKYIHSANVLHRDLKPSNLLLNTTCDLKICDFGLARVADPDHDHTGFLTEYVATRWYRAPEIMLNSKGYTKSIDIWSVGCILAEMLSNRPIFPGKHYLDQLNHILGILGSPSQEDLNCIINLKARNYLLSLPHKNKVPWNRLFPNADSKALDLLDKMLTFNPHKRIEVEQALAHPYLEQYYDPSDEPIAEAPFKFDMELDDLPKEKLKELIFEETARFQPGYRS
Test [3] relates to activated RSK2. In kind it is biochemical, Human. Conditions: 10 µM GST-fusion substrate, 0.5 µM activated RSK2, no competitor.
Test [4] has as its system activated RSK2. The experiment in a line: In vitro kinase assay of EIF4B RxxS/T phosphorylation reporters with activated RSK2, Anti-RxxpS/pT Western-blot. The conditions noted are these: 10 µM GST-fusion construct, 100 nM activated RSK2; mean ± SD, N = 3.
The test system of test [5] is activated RSK2. The experiment in a line: In vitro kinase assay of RHDF1(1-289) wild type and F281A with activated RSK2, Anti-RxxpS/pT Western-blot.

Consider “ORF45(16-76): 61 amino acid long N-terminal ORF45 peptide, expressed as GST-fusion and cleaved; GST-fusion in Fig. 7 and 8”, for which the “effect on RSK2 phosphorylation in vitro” value in the test with ppERK2 → RSK2 was “blocked RSK2 phosphorylation”. Also, the “binding in size-exclusion chromatography” value in test [1] is recorded as “binds to RSK2 as well as to the ERK2-RSK2 complex”.

For the molecule “ORF45(16-76)-F66A: VF-motif mutated version of GST-ORF45(16-76)”, in the test on MBP-NTK_RSK2, the “binding in MBP pull-down, RSK2 NTK” value was “did not show detectable binding”.

On to “RSK2: purified human RSK2 added to the ppERK2 dephosphorylation assay”, for which the “protection of ppERK2 from dephosphorylation by MKP3” value with MKP3 is “did not protect ppERK2 from dephosphorylation”.

As a reminder, the Kd is the free concentration of one partner at which half of the binding sites on the other are occupied at equilibrium, for simple one-to-one binding. Read a low Kd as tighter binding. On to unlabeled ORF45(16-40) peptide, for which the dissociation constant (Kd) in test [2] worked out at 800 nM.

For the molecule “411-ETQERERSRTGSESSQTGTS-430 [RxxSEIF4B]”, the initial phosphorylation rate in the test on activated RSK2 [3] (Sample_1) came to 0.3562; in the test on activated RSK2 [3] (Sample_2), 0.455; with activated RSK2 [3] (Sample_3), 0.379; with activated RSK2 [3] (mean N=3), 0.3967. In the test with activated RSK2 [4], this molecule registered a RxxSEIF4B phosph. rate of 0.03 ± 0.01 arb. unit / min.

B1: SOS1: human SOS1 construct 1101-1170 (legend also 1101-1171) (protein, UniProt Q07889 1101-1170, looked up, fragment)
chain: VCSVFDSDHSSPFHSSNDTVFIQVTLPHGPRSASVSSISLTKGTDEVPVPPPVPPRRRPESAPAESSPSK
With B1, the initial phosphorylation rate was 1.226 in the test with activated RSK2 [3] (Sample_1), 1.21 with activated RSK2 [3] (Sample_2), 0.88 in the test on activated RSK2 [3] (Sample_3) and 1.105 in the test on activated RSK2 [3] (mean N=3).

B2: RHDF: human RHDF1 construct 1-289, wild type (protein, UniProt Q96CC6 1-289, looked up, fragment)
chain: MSEARRDSTSSLQRKKPPWLKLDIPSAVPLTAEEPSFLQPLRRQAFLRSVSMPAETAHISSPHHELRRPVLQRQTSITQTIRRGTADWFGVSKDSDSTQKWQRKSIRHCSQRYGKLKPQVLRELDLPSQDNVSLTSTETPPPLYVGPCQLGMQKIIDPLARGRAFRVADDTAEGLSAPHTPVTPGAASLCSFSSSRSGFHRLPRRRKRESVAKMSFRAAAALMKGRSVRDGTFRRAQRRSFTPASFLEEDTTDFPDELDTSFFAREGILHEELSTYPDEVFESPSEAAL
On to B2, for which the initial phosphorylation rate in the test on activated RSK2 [3] (Sample_1) is on record as 0.1656; in the test with activated RSK2 [3] (Sample_2) it was 0.1405; in the test on activated RSK2 [3] (Sample_3), 0.1427; in the test with activated RSK2 [3] (mean N=3), 0.1496. Also, the “RxxS motif phosphorylation, Normalized to RHDF_Mean” value with activated RSK2 [5] (Sample_1) is recorded as 1.075; in the test with activated RSK2 [5] (Sample_2), 0.9889; in the test on activated RSK2 [5] (Sample_3) it was 0.9363; in the test with activated RSK2 [5] (mean N=3) it was 1.

B3: RHDF_F281A: RHDF1_1-289 with the VF motif mutated (F281A) (protein, UniProt Q96CC6 1-289, looked up, variant F281A)
chain: MSEARRDSTSSLQRKKPPWLKLDIPSAVPLTAEEPSFLQPLRRQAFLRSVSMPAETAHISSPHHELRRPVLQRQTSITQTIRRGTADWFGVSKDSDSTQKWQRKSIRHCSQRYGKLKPQVLRELDLPSQDNVSLTSTETPPPLYVGPCQLGMQKIIDPLARGRAFRVADDTAEGLSAPHTPVTPGAASLCSFSSSRSGFHRLPRRRKRESVAKMSFRAAAALMKGRSVRDGTFRRAQRRSFTPASFLEEDTTDFPDELDTSFFAREGILHEELSTYPDEVAESPSEAAL
For B3, the “RxxS motif phosphorylation, Normalized to RHDF_Mean” value amounted to 0.1221 with activated RSK2 [5] (Sample_1), 0.1251 with activated RSK2 [5] (Sample_2), 0.1185 in the test on activated RSK2 [5] (Sample_3) and 0.1219 in the test on activated RSK2 [5] (mean N=3).
